{"source": "patent US10683486B2", "about": "“Methods for producing hepatocytes” (BioLamina AB, priority 2015, dated 2020)", "type_in_all_cases": "cell-based, human", "key": {"[1]": {"tested_on": "hESC-derived hepatocytes", "experiment": "Immunostaining of hepatocyte markers and cytochrome P450 expression (hepatocyte maturation)", "description": "(§1) Differentiation was initiated at 40% confluence, by replacing serum-free medium mTESR1 (Stem Cell Technologies) with endoderm differentiation medium—RPMI 1640 containing 1×B27 (Life Technologies), 100 ng/mL Activin A (PeproTech) and 50 ng/mL Wnt3a (R&D). The medium was changed every 24 hours, for 72 hours. On day 4, endoderm differentiation medium was replaced with hepatoblast differentiation medium, and this was renewed every second day for a further five days. The medium consisted of KO-DMEM (Life Technologies), Serum Replacement (Life Technologies), 0.5% Glutamax (Life Technologies), 1% non-essential amino acids (Life Technologies), 0.2% β-mercaptoethanol (Life Technologies) and 1% dimethyl sulofxide (Sigma) for 5 days. At Day 9, differentiating cells were cultured in hepatocyte maturation medium HepatoZYME (Life Technologies) containing 1% Glutamax (Life Technologies), supplemented with 10 ng/mL hepatocyte growth factor (Peprotech) and 20 ng/mL oncostatin m (Peprotech).\n(§2) Immunocytochemistry analysis was subsequently performed on hESC-derived hepatocytes. Cell cultures were fixed in 100% ice-cold methanol at −20 degrees Celsius for 30 minutes, and adjacent cells were pre-washed twice with PBS buffer at room temperature. Cell monolayers were blocked with 0.1% PBS-Tween solution containing 10% bovine serum albumin for 1 hour. Subsequently, the monolayers were incubated with primary antibodies diluted in PBS-0.1% Tween/1% BSA at 4 degrees Celsius overnight. After 24 hours, the primary antibodies were removed and the fixed monolayers were washed three times with PBS-0.1% Tween/1% BSA. Cells were incubated with appropriate secondary antibodies diluted in PBS-0.1% Tween/1% BSA for one hour at room temperature and washed with three times with PBS. Cultures were then mounted with PermaFluor™ Aqueous Mounting Medium and counterstained with NucBlue Hoescht 33342. The cells were imaged with the Zeiss Axio Observer Z1 microscope with LD PlanNeoFluar objective lenses, and a Zeiss AxioCamMR3 camera was used for image acquisition. The images were processed through Zeiss Axiovision SE 64 Rel 4.8 and analyzed using Zeiss Axiovision version 4.9.1.0. The percentage of positive cells and standard deviation was estimated from at least five random fields of view.\nPost-hepatoblast specification, cell cultures were differentiated toward hepatocytes. Hepatocyte specification was assessed by immunostaining for albumin (ALB), E-cadherin (E CAD), cellular proliferation marker (Ki67), cytochrome p450 2D6 (CYP2D6), and cytochrome p450 3A4 (CYP3A4).\nFIG. 5 is a set of nine photomicrographs of hepatic cells on day 18 of differentiation.\nGiven that cell organisation and cell division are important factors in hepatocyte function, hepatocyte metabolic capacity in vitro was studied. Stem cell derived hepatocytes were first examined for cytochrome P450 expression using well characterised antisera. CYP3A and CYP1A2 activity were measured from days 16-26 using pGlo technology. CYP activity was expressed as relative light units (RLU) per milliliter of media per milligram of protein. Levels of significance were measured by student t-test.\nFIG. 6 is a set of six photomicrographs and two bar graphs of gene expression in hepatic cells."}, "[2]": {"tested_on": "endoderm and hepatic cells differentiated from H9 hESCs", "experiment": "Immunostaining of endoderm and hepatoblast markers (hepatoblast specification)", "description": "H9 human embryonic stem cells (hESCs) were cultured and maintained in a humidified 37° C., 5% CO2 incubator. Three different substrates were then prepared in 96-well plates. The first substrate was pre-coated with Matrigel® (MG), and served as a control. The second substrate was coated with 5 micrograms per square centimeter (μg/cm^2) of laminin-521 (LN-521).\nas §1, §2\nNext, the efficiency of the differentiation process was measured. FIG. 4 is a set of 15 photomicrographs of endoderm and hepatic cells grown on the three different substrates, 10× or 20× magnification (indicated by scale), on day 3 of differentiation.\nFOXA2 was expressed on all substrates at day 3. […] SOX17 staining was more varied across the three substrates; it was lowest on MG and highest on LN-521. As cell differentiation progressed and hepatic fate was specified, cells began expressing high levels of hepatoblast markers. AFP, HNF4a, and CK19 were expressed in the majority of cells on all three substrates. […] As shown, hepatoblast specification on all three matrices appeared equivalent and highly efficient."}, "[3]": {"tested_on": "MAN12 cells", "experiment": "Immunostaining of ALB and CYP3A in MAN12 derived cells (Example 4)", "details": "MAN12, Day 24 of differentiation, Cameron protocol", "description": "MAN12 cells, a GMP grade cell line, were plated on three different substrates. The first substrate was Matrigel® (MG), and served as a control. The second substrate was coated with 5 micrograms per square centimeter (μg/cm^2) of laminin-521 (LN-521). […] The cells were then differentiated according to the Cameron protocol.\nFIG. 14 is a set of 15 photomicrographs at 10× magnification, organized into three columns and five rows, taken on Day 24 of differentiation. […] Row A is a set of phase contrast images of morphology. The scale bars are 200 μm. Row B is a set of photomicrographs showing the immunofluorescent staining of albumin (ALB) on the three different matrices. Row C is a set of photomicrographs showing the immunofluorescent staining of cytochrome P450 3A (CYP3A). Row D is a set of photomicrographs showing the immunofluorescent staining of multidrug resistance protein 1 (MRP1). Row E is a set of photomicrographs showing immunoglobulin G control staining for sheep, mouse, and rabbit antisera.\nFIG. 15 is a set of four bar graphs. The first row of two graphs show hepatocyte protein secretion for alpha fetoprotein and albumin as analyzed by ELISA on day 24 of differentiation (n=3). No significant differences were observed across the three matrices. The second row of two graphs show the metabolic function of CYP p450 activity on days 18, 20, and 24 for CYP1A2 and CYP3A activity."}, "[4]": {"tested_on": "stem-cell derived hepatocytes", "experiment": "Phase contrast morphology and MRP1/HNF4a co-immunostaining (functional organization)", "details": "day 24", "description": "FIG. 8 is a set of nine photomicrographs from day 24 of differentiation.\nThe phase contrast images also indicated hepatocytes were arranged in lobule-like structures within the culture dish, reminiscent of regenerating liver.\nAround these lobule structures, positive staining for MRP-1, an important basal membrane marker, was detected."}}}
{"substance": "LN-521: substrate coated with 5 μg/cm^2 of laminin-521, the protein formed by joining α5, β2 and γ1 chains", "values": [{"measurement": "Albumin, percentage of positive cells and standard deviation", "setting": "[1]; day 18 of differentiation", "result": "89.5% ± 8.7"}, {"measurement": "E CAD, percentage of positive cells and standard deviation", "setting": "[1]; day 18 of differentiation", "result": "67.4% ± 4.4"}, {"measurement": "Ki67, percentage of positive cells and standard deviation", "setting": "[1]; day 18 of differentiation, proliferation marker", "result": "17.4% ± 6.2"}, {"measurement": "CYP2D6, percentage of positive cells and standard deviation", "setting": "[1]; immunostaining, FIG. 6", "result": "85.7% ± 5.7"}, {"measurement": "CYP3A, percentage of positive cells and standard deviation", "setting": "[1]; immunostaining, FIG. 6", "result": "91.3% ± 3.7"}, {"measurement": "AFP, percentage of positive cells and standard deviation", "setting": "[2]; day 3 of differentiation", "result": "98.3% ± 0.9"}, {"measurement": "CK19, percentage of positive cells and standard deviation", "setting": "[2]; day 3 of differentiation", "result": "98.5% ± 1.0"}, {"measurement": "FOXA2, percentage of positive cells and standard deviation", "setting": "[2]; day 3 of differentiation", "result": "80.4% ± 3.5"}, {"measurement": "HNF4A, percentage of positive cells and standard deviation", "setting": "[2]; day 3 of differentiation", "result": "86.4% ± 2.3"}, {"measurement": "SOX17, percentage of positive cells and standard deviation", "setting": "[2]; day 3 of differentiation", "result": "92.6% ± 1.8"}, {"measurement": "increase in cell size of differentiated hepatocytes", "setting": "[2]; see CK19 photomicrographs", "result": "approximately 2 fold"}, {"measurement": "ALB, percentage of positive cells and standard deviation", "setting": "[3]", "result": "83.3% ± 8.5"}, {"measurement": "CYP3A, percentage of positive cells and standard deviation", "setting": "[3]", "result": "81.5% ± 8.6"}, {"measurement": "MRP-1 staining, hepatocyte organisation", "setting": "[4]", "result": "exhibited networks of organised hepatocytes in vitro"}]}
